Measured values taken from the domain aggregation screens of Martell et al. (2025).

Assay: soluble fraction after stress (log2 fold change); higher = more stays soluble; pooled small domains, quantitative proteomics
Details: stress: 50 degC
Summary of the method: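 After stress at 50°C, the amount of each protein still soluble was measured. This was done on pooled custom libraries of small protein domains, using high-throughput quantitative proteomics. The figure given is a base-two log fold change and stands for aggregation propensity, with higher values meaning more protein stays in solution.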

Sequence	soluble fraction (log2)
HMLRIIDYNRVVKDLNGLTPEQLLEKLAESFTVEDKGTEEYRPTELHNFSMYLGGHWYSLTAKPGTYDDND	-0.937
HMSVDAMDEANERKMAKTFNMIVLGGLLKIRPIVSIESVIKALRKTLPERHHHLIPMNEEAIHIGMDII	0.0597
HMDTLRARQEAAYRFLSAIAGDWRNYEEANRALFAGDAARFQDLTESWPADVRDHARHLASAAFSS	-0.543
HMLKLSGEESQQLALRLREELARRRITRQGLADAAKISISTLEQVLAGRRTFTLATIVRLEEGLGIKLL	-1.89
HMSDGTVYGSDGVIKVNLPQSGMLRIYATDGTTLVNRWQAAGIDTISMPRGLYIVRFDNQVWKVVV	-0.74
HMTSSQLYLIEEDMEGERLDAFLAEVIADLSRTAIKDLISNGRVLVDGQARKPSYRVKEGEQVLIHVPEAR	-0.0195
HMNDSGIIGVVINDHEKYEGHVLEDGFISSSLSALSREIDVAGYFMMVKTVVYEGFFQELKGIGNV	-0.00726
HMNNDFIVKSTDSHKVNLRSQPDTHADIIKRLDDHTIVEKLKTVRKNWYLVQLKDTTTQGYVHKSQLERV	-0.0413
HMTTIAQNISNYRTRANMTQQQVADKLSVSHHTVSKWELGINTPSVEDMQKLAQVFGVTITELVVD	-0.239
HMSEQLHALIDRLDDIPDDELKKNWPGTLRDLVDVISAELHRQGIEPAQAGMLARKVAAAQAGYMG	-0.344
HMVKRAYGEYVNVKLTDADLSKLKADFPADWQERIERLSTYMASTGKTYKNHLATIRNWARRDAERVSA	0.22
HMETLKEVPNLKGQQQEVAKQLLINAGLGVGKINIIEDSTIADGEVVTQSILPNTKVKKDTYVGFTVNKAP	0.0969
HMESIEAGTFELDNKTSIDISEDEANLLNKMFEELTETNSKDMYGVMVADEAGFNEILEFAKENL	0.167
HMTLNTQLFTWKKGVRVGEDDQGNIYYRTKDDKRRWVIFTGETEATKVSPDWHGWLHRTWATPPNK	-2.39
HMSKDKEKRTREHVLGILKKYDKVMTDKAFTVFKKMIKDESILEMELIKLINFIGERKEIRSKDVLAVVTE	0.281
HMDQHPYGEDSFRGDNPPAGFDIKGNEDSMKFHEPSSPWYGRTIAEVWFRSAAAAEAAGFVNAV	-0.113
HMDKAGWLPARVRLADYPALKQLAWQVQGVDELTPREALGIYERNWRHLDEAALLPRERNLIDALRLAFG	-0.207
HMVAADTVQVPDVTGKTVADAKQALISAGLQVGTVTAKDGKETANTILETSPAAGTSVDKGSKVNLVYSTG	-0.185
HMLELTVSDKMARLMAWRNRRRVNLSDQELHRIAAAPKQSPESILKMLPGFLQDSVPEIWAELTGGRP	-0.192
HMVDLEINGRQTLQFVANKYGIPVEKLATDLNIPSDRFGEKLGRLRRQYAFTMNDVRKSILKNK	0.00739
HMAQPIPSGSDIREAREAAGMNLRDFARMVGGGAIGTWSHYETGKPIRVKSISPEVWQRVRDFILQHGK	-0.417
HMPDPVHAAYLRLAVLLTEQAIGPQVTEQQIRDRFALTRRQTSDLMGRLIREGIAEKRAGYGWNINTELTA	-0.845
HMELSAEGWVDGTGVRMRASASTDSEVVRVTEDGESLDITGVSGTWYRVTAGGVSGYIRSDYVSLEEP	-0.287
HMVTDVDELEKLIQKVLDSNSSQVDEYRQGKEKVFGFFVGAVMKLTKGQADPDVVNQLLKEKLSGRK	0.195
HMQDLPPIHLSRGMTDYTLVRSRRRTLSMELKRDGTVVVHAPLRLGVEKIDAFVAAHEAWLARARTRQAER	-2.41
HMYMLYQQLADSLRDKIYEGTYTFGDKIPSERTLAATFGISHLTVRKALAILEEEGLLDRRQGNGTFVRV	-1.02
HMFMSDDDIRILVKEWLQSQNRKSYQLAEEIGIRPQTFYAQMSVRKISANTKKALSRIIPGL	-0.86
HMKEINFTIEESAKGRLDKVIAENVADLTRSQVQSLIKKGQILVNDAPTTNRYQVKPNDQVIIKLPDPV	0.339

Sequence	soluble fraction (log2)
HMVTTADIILEFYSRNPNATLTQAAQHVARATGTTYSRQAISAQLKRLEVAGLVERNGHVTV	-0.393
HMELNKNDLKIIKNISHIYPYFTPVKILQLILSKKFKTIDYNKILKSTSILTTDRSHLYYILNN	0.0788
HMVAGPDEPLSDREQGVLDLLAEGLSNKAISKQLGISVATVKSHLSNIYGKLQAENRMQAVARARELGLM	≥ 0.62
HMLSEKELLELLNRAKSNYNGITKKGIEAIALKYQGYSNVEIANLYHVKANHISAWISRARSRLKADY	0.193
HMTSKVTVLAVNGRITVSGKEQDETVSVYDTGGRLLYQGESDVINVPRKAMYIVTVSRKSYKVIV	-0.941
HMEDPAVYYKILQIPPDASLSEIHRAFEKITSAWDPERYPHISSWKETSAKKLQEIRNAYEKLLILRETG	-0.0409
HMTANPSTEEIMARVEAIPLPIKRLPPGQIVQAQTVAATVLRSNPGLDLAKAWKLAYATVTGQE	-0.0416
HMYLHSEFSPVTGQELHMKYDDSSTEEDPVMLVEGKDIQGNDFVKKIHLNDVDPENATPAEMTALRVHL	-0.541
HMTVPMKILILEDEQRNAMRLIRLLNDIDTTFIIEGPLTNIKEAVDFFQSGKTTDLILADIRL	-0.147
HMSYTWHDMYLLAQEYQKEHGNLIIPRNYKGKNGLNLGYWLYKEKLKYRQGKLAPEKIIALEHIGIVWT	-1.21
HMGGPEPIPAQIREGDTVYVTKFKQLGLVLKISEDTAEVQIGPLRATVAKTELSKVDATATEHR	0.158
HMDHSSLIKKLRLERGLSQKKLAQGISQRSTLASFENNATKISYNILIQYLDRMNVTLEEYQFMLDGNNL	-2.06
HMDSGLEQAKTAALENAELETSQVTFIKAELDYDDGKKVYEIEFVTSAMKYEYQVKADDFSILEMSKETIE	-0.39
HMLPGVPVVAGKTQSAATRILKAAGYAVSVVREEAFDGVTGTVLRTSPEAGSPLAPGSRVTLVVLQVV	-0.27
HMGSDAFDISKLNLVGKTKESAESLLKENGFSVDTKEEASDTAAKGTVISYSPTKPKNGERVTLTVSSGK	0.337
HMLSYFKIIKNGLVREGPASYYKIAENLEIGTIVQAFEKHDDWYLIKTHSGRIGWIVASDVTPQV	-0.245
HMDVEMLIDKYQLNDSEAEVLRFMKKNRQSLKTIGIRDVAKATYVSTATIINMAKKIGYSGYSELVFALGN	-0.0472
HMEVLPLHQVKLKYAEADTILIALKSAQSMLSPRGQLLADNRSQQIFVYDDEAHTATLIEAIKHLDQPL	-0.0429
HMTGESVPAPLSGTIFKILVAPGEQVEEGQTVIILEAMKMETEISAPRSGVVGAINIKEGDSVQVGQSLFT	0.0706
HMEPMTDQQILEGFAEFKRQNPDLMNRPATQAIVNLTLPGGTPISFRSGAGAAALNQYLESIGMRAGP	0.202
HMNQKVRQLLSQAQAEMERKNYKQAIKLLDQALAIEPHSGELHFMKGYAWMSMGEFEKALESLYEARNYA	-0.399
HMVSEASELTDTINKIGSLAQALVGANKLSKTDLVGIIKKYHTSANYNSITDIGVAKNILAELEAKN	0.0739
HMGSSLLSPKEREVLQLLAGNLSNKQIALAMGVSDETIKWHLRNLFGKLNAGGRKHLIDRARMLGLLAAA	-0.6
HMLEYIEPRTAVQIHGIKAKPELNGKRGMVMGYAPERMRYRVRIDVGEGTGGKESEEVYLKPENVIAVK	0.0778
HMELLPAERRQQLVDWFKSNQAGTSQDLARMFGISVSTIRRDLDLLASEGLVKRTHGGAVSIR	0.0027
HMQTTDTGAIETIVDELMAANPDKVEAYRGGKTGLQGFFMGQVMKQLGGQGNPKVISAIVTEKLE	≥ 0.62
HMNEWVSVEERLPTDERPVLAFIGYADTMNGFITTSYYFRFDPDPHWLGEGLIPVGLKTLFWMPLPAP	-0.0149
